The test system of one test is HL-60. The settings on record: comparator agents; cited from earlier work.
A further test has as its system U937. The settings on record: comparator agents; cited from earlier work.
The next test concerns THP-1. The settings on record: comparator agents; cited from earlier work.
In another test the target is human CD300f (human, UniProt Q8TDQ1 20-290). Put plainly: cell-based or functional assay.
The subject of the next test is dendritic cells. Put plainly: Activation marker expression on dendritic cells after LPS. The test is classed as cell-based, human. The settings on record: HLA-DR, CD11c, CD80, CD83; 200 pmol. The procedure:
The activity of DCR-2PBD on the upregulation of activation markers on DC was measured by incubating whole PBMC with DCR-2PBD or no antibody for […] before washing, followed by 12 hours of LPS stimulation. Control DC were not exposed to DCR-2PBD or LPS. Myeloid DC were gated out by excluding dead cells, Lin^+(CD3, CD20, CD19, CD56, CD14), then gating on HLA-DR^+ and CD11c^+ cells. The activation markers CD80 and CD83 were assessed via flow cytometry. The changes on activation were determined by comparing activated DC incubated with or without DCR-2PBD compared to inactivated DC.
PBMC were incubated in complete RPMI media with or without DCR-2-PBD (200 pmol). After 12 hours, washed cells were incubated for a further 12 hours with or without LPS then phenotyped for the expression of activation markers on DC populations. MoDC were derived from CD14+ monocytes as described previously (Fromm et al. J Leukoc Biol. 2020; 107(2):323-339). DCR-2-PBD or isotype-PBD (200 pmol) were added for 72 hours prior to enumeration of live cells by flow cytometry.

The subject of another test is AML. Put plainly: NOS/SCID mouse model of AML. Format: in vivo. The settings on record: unconjugated antibody alone.
The next test relates to HL-60 cells. Put plainly: Internalisation assay by flow cytometry. The test is classed as cell-based. The procedure:
DCR-2 (IgG1), and as an isotype control, the anti-tetanus toxoid mAb, CMRF-81 (IgG1) which were both produced, purified and directly conjugated to phycoerythrin (PE) in house (Abadir et al. Mol Oncol. 2019; 13(10):2107-2120). Cells were incubated with DCR-2-PE or CMRF-81-PE (10 μg/ml) on ice for 20 min, washed to remove unbound mAb then incubated at 37° C./5% CO2 to allow internalisation for the indicated times.
After incubation, residual mAb remaining on the cell surface was detected with a secondary goat anti-mouse (GAM) IgG-AF488 antibody. Cells were fixed in 1% paraformaldehyde/PBS for flow cytometry analysis. The surface and total relative Mean Fluorescent Index (MFI) was calculated as the (MFI of binding antibody at time point−MFI of isotype control at time point) at 37° C./(MFI of binding antibody at time point−MFI of isotype control at time point) at 0° C. The percent internalised was assessed by 100−(relative MFI surface staining/relative MFI total staining). In immunofluorescent microscopy experiments cells were stained with DCR-2 then air-dried and fixed with 4% paraformaldehyde or incubated for 37° C. for 30 minutes then fixed. Rehydration was performed using 1% BSA/PBS prior to staining with GAM IgG-AF488 antibody and 18 μM DAPI (ThermoFisher).
For orientation: Flow cytometry measures light scatter and fluorescence of single cells or particles in a stream.

Chain of human CD300f (Q8TDQ1 20-290): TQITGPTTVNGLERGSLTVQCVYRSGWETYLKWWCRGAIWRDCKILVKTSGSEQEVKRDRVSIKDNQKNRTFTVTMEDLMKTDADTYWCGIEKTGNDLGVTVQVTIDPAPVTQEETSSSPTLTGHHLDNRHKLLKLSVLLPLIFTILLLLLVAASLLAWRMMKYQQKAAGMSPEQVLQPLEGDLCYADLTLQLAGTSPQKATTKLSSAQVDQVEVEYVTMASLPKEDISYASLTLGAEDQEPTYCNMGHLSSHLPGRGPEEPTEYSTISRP

As a reminder, the IC50 is the point on the concentration scale where inhibition reaches its midpoint. Regarding `CS(=O)(=O)OCCCCOS(C)(=O)=O` [Busulfan], the concentration for half-maximal inhibition (IC50) in the test on HL-60 was 354000 nM.

Turning to `COc1cccc2c1C(=O)c1c(O)c3c(c(O)c1C2=O)C[C@@](O)(C(=O)CO)C[C@@H]3O[C@H]1C[C@H](N)[C@H](O)[C@H](C)O1` [Doxorubicin], the concentration for half-maximal inhibition (IC50) in the test with HL-60 was 345000 nM.

For the molecule “Gemtuzumab-Ozogamicin: approved AML therapeutic which targets CD33”, the IC50 was 0.0133 nM with HL-60, 0.127 nM in the test on U937 and 0.04 nM in the test with THP-1.

B1: DCR-2-pyrrolobenzodiazepine (PBD) immunoconjugate (antibody, V domains shown)
VH: MESGGGLVQPGGPLKLSCAASGFGFSGSWMSWVRQAPGKGLEWIGQINPDSSTINYTPSLKDKFIISRDNAKNTLYLQINKVRSEDTALYYCARRGFFEGYSAWFAYW
VL: ILMTQTPKFLLVSAGDRVTITCKASQSVSNDVAWYQQKPGQSPSLLIYYASNRNTGVPDRFTGSGYETDFTFTISTVQAEDLAVYFCQQDYTSPWTFGGG
modifications: PBD dimer linked through the Cathepsin B-cleavable linker MA-PEG4-VA-PBD to native cysteines (reduced interchain disulfides); drug to antibody molar ratio 3.3; positions not given
For B1, in the test with human CD300f, the “IC50 (pM), cytotoxicity on HL-60 cells” value was 5.45 pM; the “IC50 (pM), cytotoxicity on THP-1 cells” value worked out at 29.9 pM; the “IC50 (pM), cytotoxicity on U937 cells” value amounted to 6.74 pM.

B2: DCR-2: murine IgG1 kappa monoclonal antibody binding the extracellular domain of CD300f; hybridoma CBA20160029 (antibody, V domains shown)
VH: B1 VH
VL: B1 VL
As to B2, in the test on dendritic cells, the “up-regulation of activation markers on dendritic cells after LPS” value is “does not prevent upregulation of activation markers CD80 and CD83”. Besides, the “survival and disease burden” value in the test on AML was “does not prolong survival or reduce disease burden”. Also, the Internalisation entry in the test with HL-60 cells (30 minutes) was “significant”; with HL-60 cells (180 minutes), “greater than 50%”.

(Values after patent US20220296727A1, “Immunoconjugate” (DendroCyte BioTech Pty Ltd, priority 2019, published 2022).)
